Results published in PMC3029384, “Dimeric SecA Couples the Preprotein Translocation in an Asymmetric Manner” (PLoS ONE, 2011).

B1: His6-tagged SecB (natural protein, Escherichia coli)
chain: MSEQNNTEMTFQIQRIYTKDISFEAPNAPHVFQKDWQPEVKLDLDTASSQLADDVYEVVLRVTVTASLGEETAFLCEVQQGGIFSIAGIEGTQMAHCLGAYCPNILFPYARECITSMVSRGTFPQLNLAPVNFDALFMNYLQQQAGEGTEEHQ
notes: SecB chaperone, Escherichia coli; The tag is named explicitly only in Materials and for the SecB/proOmpA assembly; also called SecB tetramer; tetrameric SecB

Assays:
SecA (Escherichia coli) = SecA (Escherichia coli) (UniProt P10408); conditions: cited from earlier work
[1] = target: the molecule itself; assay: SEC; SecA monomer 3 uM and SecB monomer 30 uM incubated 1 h at 4 °C in buffer A (20 mM HEPES-KOH, 30 mM KCl, 1 mM DTT, pH 7.4); Superdex G200 analytical column at 4 °C; peak fraction checked by SDS-PAGE
His6-tagged SecB = target: B1; assay: SEC; SecA monomer 3 uM and preformed SecB/proOmpA 2 uM incubated 1 h at 4 °C in buffer A (20 mM HEPES-KOH, 30 mM KCl, 1 mM DTT, pH 7.4); Superdex G200 analytical column at 4 °C; fractions checked by SDS-PAGE; conditions: both partners purified

## SecA (from UniProt P10408)
SecA (Escherichia coli)
  Kd: 1 µM

## B1
[1]
  stoichiometry N: 4

B2: proOmpA (natural protein, Escherichia coli, UniProt P0A910 1-346, looked up)
chain: MKKTAIAIAVALAGFATVAQAAPKDNTWYTGAKLGWSQYHDTGFINNNGPTHENQLGAGAFGGYQVNPYVGFEMGYDWLGRMPYKGSVENGAYKAQGVQLTAKLGYPITDDLDIYTRLGGMVWRADTKSNVYGKNHDTGVSPVFAGGVEYAITPEIATRLEYQWTNNIGDAHTIGTRPDNGMLSLGVSYRFGQGEAAPVVAPAPAPAPEVQTKHFTLKSDVLFNFNKATLKPEGQAALDQLYSQLSNLDPKDGSVVVLGYTDRIGSDAYNQGLSERRAQSVVDYLISKGIPADKISARGMGESNPVTGNTCDNVKQRAALIDCLAPDRRVEIEVKGIKDVVTQPQA
notes: Precursor form (unfolded, diluted out of 6 M urea); also called preprotein; source: kept in 6 M urea before dilution
His6-tagged SecB
  stoichiometry N: 1 proOmpA per SecB tetramer
